Numbered stars: 1 amine (or outer) side, 2 acyl side, 3 side chain; on linkers, the order of the positions; unused ones are H or OH. Bridge positions count the residues as written; N and C are the ends. Side chains are listed from the residue outwards. Ends that are not written are not given here. * marks the point of attachment. C20 diacid = O=C(O)CCCCCCCCCCCCCCCCCCC(=O)*; γGlu = O=C(O)[C@H](CCC(=O)[*:2])N[*:1]; AEEA = NCCOCCOCC(=O)O
T1: rat calcitonin receptor (rat, UniProt P32214 25-516)
T1 construct: whole, on cells; Membranes of BHK tk'ts 13 cells transiently transfected with the rat calcitonin receptor; also called rCTR; rat calcitonin (a) receptor
T1 sequence (looked up): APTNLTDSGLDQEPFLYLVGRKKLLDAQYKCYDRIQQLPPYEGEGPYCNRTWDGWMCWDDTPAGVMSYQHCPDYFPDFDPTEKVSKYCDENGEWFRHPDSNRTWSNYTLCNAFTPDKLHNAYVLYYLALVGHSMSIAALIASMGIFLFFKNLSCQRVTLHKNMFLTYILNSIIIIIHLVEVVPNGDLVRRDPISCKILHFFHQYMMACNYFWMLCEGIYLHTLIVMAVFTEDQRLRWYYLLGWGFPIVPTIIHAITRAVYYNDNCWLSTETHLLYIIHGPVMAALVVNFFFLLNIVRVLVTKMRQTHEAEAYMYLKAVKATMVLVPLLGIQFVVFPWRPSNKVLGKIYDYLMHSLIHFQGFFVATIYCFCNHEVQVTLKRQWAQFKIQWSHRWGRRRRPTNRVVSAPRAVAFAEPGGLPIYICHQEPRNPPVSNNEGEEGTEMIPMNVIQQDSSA

T2: rat calcitonin receptor (rat, UniProt P32214 25-516)
T2 construct: whole, on cells; Membranes prepared from transiently transfected BHK tk'ts 13 cells; also called rCTR; rat calcitonin (a) receptor
T2 sequence (looked up): T1 sequence (looked up)

T3: human calcitonin receptor (human, UniProt P30988 25-474)
T3 construct: whole, on cells; Membranes of a BHK tk'ts 13 cell line stably transfected with the human calcitonin receptor; also called hCTR; hCT
T3 sequence (looked up): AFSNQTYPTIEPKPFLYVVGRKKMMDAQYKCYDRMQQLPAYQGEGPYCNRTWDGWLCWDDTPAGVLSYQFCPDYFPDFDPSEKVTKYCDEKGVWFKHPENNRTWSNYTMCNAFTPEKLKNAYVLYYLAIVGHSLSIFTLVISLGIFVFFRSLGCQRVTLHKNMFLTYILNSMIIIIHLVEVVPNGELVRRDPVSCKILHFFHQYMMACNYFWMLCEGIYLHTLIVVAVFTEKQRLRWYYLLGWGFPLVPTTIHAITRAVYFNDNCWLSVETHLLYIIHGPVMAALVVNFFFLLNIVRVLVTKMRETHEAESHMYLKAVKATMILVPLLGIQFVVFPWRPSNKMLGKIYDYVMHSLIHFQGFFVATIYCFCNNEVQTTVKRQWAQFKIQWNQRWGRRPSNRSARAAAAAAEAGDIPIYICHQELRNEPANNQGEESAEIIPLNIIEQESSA

T4: rat amylin receptor (rat calcitonin receptor + rat RAMP 3) (rat, UniProt P32214 25-516; Q9JJ73 23-147)
T4 construct: whole, on cells; Membranes of BHK tk'ts 13 cells transiently transfected with the rat calcitonin receptor and rat RAMP 3; also called rAmylin-R; rat amylin 3(a) receptor
T4 sequence (looked up) 1: T1 sequence (looked up)
T4 sequence (looked up) 2: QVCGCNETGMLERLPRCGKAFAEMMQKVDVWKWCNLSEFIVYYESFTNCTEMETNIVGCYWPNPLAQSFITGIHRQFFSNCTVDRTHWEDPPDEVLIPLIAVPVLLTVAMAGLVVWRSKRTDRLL

B1: N^ε1-[(4S)-4-carboxy-4-(19-carboxynonadecanoylamino)butanoyl]-[Arg17,Pro21,Pro27]-h-amylin (peptide)
peptide: K([γGlu-C20 diacid])CNTATCATQRLANFLRHSSPNFGAIPSSTNVGSNTY-NH2
modifications: disulfide 2-7; N-terminus assumed
SMILES: CC[C@H](C)[C@H](NC(=O)[C@H](C)NC(=O)CNC(=O)[C@H](Cc1ccccc1)NC(=O)[C@H](CC(N)=O)NC(=O)[C@@H]1CCCN1C(=O)[C@H](CO)NC(=O)[C@H](CO)NC(=O)[C@H](Cc1c[nH]cn1)NC(=O)[C@H](CCCNC(=N)N)NC(=O)[C@H](CC(C)C)NC(=O)[C@H](Cc1ccccc1)NC(=O)[C@H](CC(N)=O)NC(=O)[C@H](C)NC(=O)[C@H](CC(C)C)NC(=O)[C@H](CCCNC(=N)N)NC(=O)[C@H](CCC(N)=O)NC(=O)[C@@H](NC(=O)[C@H](C)NC(=O)[C@@H]1CSSC[C@H](NC(=O)[C@@H](N)CCCCNC(=O)CC[C@H](NC(=O)CCCCCCCCCCCCCCCCCCC(=O)O)C(=O)O)C(=O)N[C@@H](CC(N)=O)C(=O)N[C@@H]([C@@H](C)O)C(=O)N[C@@H](C)C(=O)N[C@@H]([C@@H](C)O)C(=O)N1)[C@@H](C)O)C(=O)N1CCC[C@H]1C(=O)N[C@@H](CO)C(=O)N[C@@H](CO)C(=O)N[C@H](C(=O)N[C@@H](CC(N)=O)C(=O)N[C@H](C(=O)NCC(=O)N[C@@H](CO)C(=O)N[C@@H](CC(N)=O)C(=O)N[C@H](C(=O)N[C@@H](Cc1ccc(O)cc1)C(N)=O)[C@@H](C)O)C(C)C)[C@@H](C)O
notes: modifications are with respect to human amylin; also called compound 48
B2: N^ε-[2-[2-[2-[[(4S)-4-carboxy-4-(19-carboxynonadecanoylamino)butanoyl]amino]ethoxy]ethoxy]acetyl]Lys[Arg1,Arg17,Pro21,Pro27,His35]-h-amylin (peptide)
peptide: K([AEEA-γGlu-C20 diacid])RCNTATCATQRLANFLRHSSPNFGAIPSSTNVGSHTY-NH2
modifications: disulfide 3-8; N-terminus assumed
SMILES: CC[C@H](C)[C@H](NC(=O)[C@H](C)NC(=O)CNC(=O)[C@H](Cc1ccccc1)NC(=O)[C@H](CC(N)=O)NC(=O)[C@@H]1CCCN1C(=O)[C@H](CO)NC(=O)[C@H](CO)NC(=O)[C@H](Cc1c[nH]cn1)NC(=O)[C@H](CCCNC(=N)N)NC(=O)[C@H](CC(C)C)NC(=O)[C@H](Cc1ccccc1)NC(=O)[C@H](CC(N)=O)NC(=O)[C@H](C)NC(=O)[C@H](CC(C)C)NC(=O)[C@H](CCCNC(=N)N)NC(=O)[C@H](CCC(N)=O)NC(=O)[C@@H](NC(=O)[C@H](C)NC(=O)[C@@H]1CSSC[C@H](NC(=O)[C@H](CCCNC(=N)N)NC(=O)[C@@H](N)CCCCNC(=O)COCCOCCNC(=O)CC[C@H](NC(=O)CCCCCCCCCCCCCCCCCCC(=O)O)C(=O)O)C(=O)N[C@@H](CC(N)=O)C(=O)N[C@@H]([C@@H](C)O)C(=O)N[C@@H](C)C(=O)N[C@@H]([C@@H](C)O)C(=O)N1)[C@@H](C)O)C(=O)N1CCC[C@H]1C(=O)N[C@@H](CO)C(=O)N[C@@H](CO)C(=O)N[C@H](C(=O)N[C@@H](CC(N)=O)C(=O)N[C@H](C(=O)NCC(=O)N[C@@H](CO)C(=O)N[C@@H](Cc1c[nH]cn1)C(=O)N[C@H](C(=O)N[C@@H](Cc1ccc(O)cc1)C(N)=O)[C@@H](C)O)C(C)C)[C@@H](C)O
notes: modifications are with respect to human amylin; also called compound 45
B3: N^-1-[(4S)-4-carboxy-4-(19-carboxynonadecanoylamino)butanoyl]-Gly[Arg1,Arg17,Pro21,Pro27,His35]-h-amylin (peptide)
peptide: {C20 diacid-γGlu}-GRCNTATCATQRLANFLRHSSPNFGAIPSSTNVGSHTY-NH2
modifications: disulfide 3-8
SMILES: CC[C@H](C)[C@H](NC(=O)[C@H](C)NC(=O)CNC(=O)[C@H](Cc1ccccc1)NC(=O)[C@H](CC(N)=O)NC(=O)[C@@H]1CCCN1C(=O)[C@H](CO)NC(=O)[C@H](CO)NC(=O)[C@H](Cc1c[nH]cn1)NC(=O)[C@H](CCCNC(=N)N)NC(=O)[C@H](CC(C)C)NC(=O)[C@H](Cc1ccccc1)NC(=O)[C@H](CC(N)=O)NC(=O)[C@H](C)NC(=O)[C@H](CC(C)C)NC(=O)[C@H](CCCNC(=N)N)NC(=O)[C@H](CCC(N)=O)NC(=O)[C@@H](NC(=O)[C@H](C)NC(=O)[C@@H]1CSSC[C@H](NC(=O)[C@H](CCCNC(=N)N)NC(=O)CNC(=O)CC[C@H](NC(=O)CCCCCCCCCCCCCCCCCCC(=O)O)C(=O)O)C(=O)N[C@@H](CC(N)=O)C(=O)N[C@@H]([C@@H](C)O)C(=O)N[C@@H](C)C(=O)N[C@@H]([C@@H](C)O)C(=O)N1)[C@@H](C)O)C(=O)N1CCC[C@H]1C(=O)N[C@@H](CO)C(=O)N[C@@H](CO)C(=O)N[C@H](C(=O)N[C@@H](CC(N)=O)C(=O)N[C@H](C(=O)NCC(=O)N[C@@H](CO)C(=O)N[C@@H](Cc1c[nH]cn1)C(=O)N[C@H](C(=O)N[C@@H](Cc1ccc(O)cc1)C(N)=O)[C@@H](C)O)C(C)C)[C@@H](C)O
notes: modifications are with respect to human amylin; also called compound 47
B4: N^-1-[(4S)-4-carboxy-4-(19-carboxynonadecanoylamino)butanoyl]-Gly[Arg1,Arg17,Pro21,Pro27]-h-amylin (peptide)
peptide: {C20 diacid-γGlu}-GRCNTATCATQRLANFLRHSSPNFGAIPSSTNVGSNTY-NH2
modifications: disulfide 3-8
SMILES: CC[C@H](C)[C@H](NC(=O)[C@H](C)NC(=O)CNC(=O)[C@H](Cc1ccccc1)NC(=O)[C@H](CC(N)=O)NC(=O)[C@@H]1CCCN1C(=O)[C@H](CO)NC(=O)[C@H](CO)NC(=O)[C@H](Cc1c[nH]cn1)NC(=O)[C@H](CCCNC(=N)N)NC(=O)[C@H](CC(C)C)NC(=O)[C@H](Cc1ccccc1)NC(=O)[C@H](CC(N)=O)NC(=O)[C@H](C)NC(=O)[C@H](CC(C)C)NC(=O)[C@H](CCCNC(=N)N)NC(=O)[C@H](CCC(N)=O)NC(=O)[C@@H](NC(=O)[C@H](C)NC(=O)[C@@H]1CSSC[C@H](NC(=O)[C@H](CCCNC(=N)N)NC(=O)CNC(=O)CC[C@H](NC(=O)CCCCCCCCCCCCCCCCCCC(=O)O)C(=O)O)C(=O)N[C@@H](CC(N)=O)C(=O)N[C@@H]([C@@H](C)O)C(=O)N[C@@H](C)C(=O)N[C@@H]([C@@H](C)O)C(=O)N1)[C@@H](C)O)C(=O)N1CCC[C@H]1C(=O)N[C@@H](CO)C(=O)N[C@@H](CO)C(=O)N[C@H](C(=O)N[C@@H](CC(N)=O)C(=O)N[C@H](C(=O)NCC(=O)N[C@@H](CO)C(=O)N[C@@H](CC(N)=O)C(=O)N[C@H](C(=O)N[C@@H](Cc1ccc(O)cc1)C(N)=O)[C@@H](C)O)C(C)C)[C@@H](C)O
notes: modifications are with respect to human amylin; also called compound 46

Molecular target: T1, rat calcitonin receptor
Test: IC50 at rCTR divided by IC50 at rAmylin-R (reference)

| Ratio rCT/rAmylin binding | Binder |
| --- | --- |
| 201 | B1 |
| 67.1 | B2 |
| 84.3 | B3 |
| 142 | B4 |

Molecular target: T1, rat calcitonin receptor
Test: SPA competition vs 125I-calcitonin, membranes with rat CTR (Assay VIII)

| IC50 [nM] | Binder |
| --- | --- |
| 112 | B1 |
| 41.8 | B2 |
| 17.1 | B3 |
| 46.8 | B4 |

Molecular target: T2, rat calcitonin receptor
Test: SPA competition vs 125I-calcitonin, membranes (Assay VIII)

| IC50 [nM] | Binder |
| --- | --- |
| 30.9 | KCNTATCATQRLADFLRHSSPNFGAIPSSTNVGSRTY-NH2 (disulfide 2-7, Not acylated) [[Asp14,Arg17,Pro21,Pro27,Arg35]-h-amylin] |

Molecular target: T3, human calcitonin receptor
Test: IC50 at hCTR divided by IC50 at hAmylin-R (reference)
Procedure, shortened: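 IC₅₀ values were derived by one-site competition analysis of SPA counts. Cell membranes (35 ng/μL) with SPA beads were incubated with test compounds for 120 min at 25° C in Hepes buffer, pH 7.4, containing CaCl2, MgCl₂, OA and Tween20.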

| Ratio hCT/hAmylin binding | Binder |
| --- | --- |
| 69.7 | B1 |
| 26.8 | B2 |
| 44.9 | B3 |
| 48.9 | B4 |

Molecular target: T4, rat amylin receptor (rat calcitonin …)
Test: SPA competition vs 125I-rat amylin, membranes with rat CTR + rat RAMP3 (Assay VI)

| IC50 [nM] | Binder |
| --- | --- |
| 0.558 | B1 |
| 0.623 | B2 |
| 0.203 | B3 |
| 0.33 | B4 |

— patent publication US20140087995A1 (published 2014)
